Three molecules from patent US20200062829A1 (PANASONIC INTELLECTUAL PROPERTY MANAGEMENT, published 2020) can be followed below.

For this assay, the target named is T1, VLP noro antigen derived from the norovirus GII/4, composed by associating 90 dimers of VP1 each including … (norovirus GII/4, UniProt P54635 1-539).
T1 construct: Virus-like particle of 90 VP1 dimers (180 copies); also called solid phase VLP
T1 chain: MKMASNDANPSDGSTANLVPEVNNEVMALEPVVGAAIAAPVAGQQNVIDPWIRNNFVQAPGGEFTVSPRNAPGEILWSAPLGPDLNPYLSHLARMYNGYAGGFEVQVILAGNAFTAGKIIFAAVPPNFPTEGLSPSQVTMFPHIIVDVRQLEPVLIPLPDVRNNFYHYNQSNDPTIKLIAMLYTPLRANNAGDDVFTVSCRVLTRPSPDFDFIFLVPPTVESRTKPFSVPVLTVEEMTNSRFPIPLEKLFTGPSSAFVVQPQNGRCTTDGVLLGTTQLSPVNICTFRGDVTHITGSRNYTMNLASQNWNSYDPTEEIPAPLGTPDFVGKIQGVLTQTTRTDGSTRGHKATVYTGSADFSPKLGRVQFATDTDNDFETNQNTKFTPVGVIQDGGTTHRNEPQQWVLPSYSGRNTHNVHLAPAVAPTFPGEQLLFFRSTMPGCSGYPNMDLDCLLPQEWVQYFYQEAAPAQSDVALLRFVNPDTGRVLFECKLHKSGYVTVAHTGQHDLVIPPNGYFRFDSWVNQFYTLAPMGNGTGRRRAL
Nature of the assay: SPR (T200, CM3), VLP noro antigen immobilised, antibody as analyte.

B1: VHH antibody consisting of the amino acid sequence represented by SEQ ID NO: 67 (monomer antibody; includes the structural domain SEQ ID NO: 39) (VHH)
VHH: QLQLVESGGGLVQAGGSLRLSCVASGFPFASSAMAWFRQAPGKEREFVASISYRGITTYYAQPVKGRFTMSRDNAKNTVYLQMNSLKPEDTAVYYCYAKSIWGNAYWGQGTQVTVSP
notes: also called Monomer Antibody 67
B1: the koff (commonly a measure of how fast the partners let go of each other) amounted to 0.0194 s⁻¹.

B2: Antibody bound to the protein represented by SEQ ID NO: 102 (N to C: protein molecule SEQ ID NO: 44 - linker - structural domain SEQ ID NO: 39) (VHH)
chain: QVQLVESGGGLVQAGKSLRLSCTASGSIPSIGVMGWHRQAPGKQRELVATISQGGHINYFESVKGRFTISRDNAKNTVYLQMNSLKPEDTGVYYCNAFWLPLRLNDYWGQGTQVTVSSGGGGSGGGASGGGGSQLQLVESGGGLVQAGGSLRLSCVASGFPFASSAMAWFRQAPGKEREFVASISYRGITTYYAQPVKGRFTMSRDNAKNTVYLQMNSLKPEDTAVYYCYAKSIWGNAYWGQGTQVTVSPEPKTPKPQSASAA
notes: One chain; Made in E. coli; tags not described
As for B2, binding was characterised by a dissociation constant (Kd) of 10.2 nM; the koff was found to be 0.0109 s⁻¹; the kon (in general, the second-order rate constant of association) worked out at 1.07e+06 M⁻¹ s⁻¹.

B3: Antibody bound to the protein represented by SEQ ID NO: 100 (structural domain SEQ ID NO: 38 - linker - protein molecule SEQ ID NO: 44) (VHH)
chain: QVQLVESGGGVVQTGGSLRLSCAASGSTFSIGAMGWYRQAPGKQRELVATVNRASRTIYADSVRGRFTISRDNAKNLVYLQMNNLKPEDTAVYYCNVIATSASGRGVTSTSWGQGSQVTVSSGGGGSGGGASGGGGSQVQLVESGGGLVQAGKSLRLSCTASGSIPSIGVMGWHRQAPGKQRELVATISQGGHINYFESVKGRFTISRDNAKNTVYLQMNSLKPEDTGVYYCNAFWLPLRLNDYWGQGTQVTVSSEPKTPKPQSASAA
notes: tags not described
B3: the Kd (commonly the constant that tells how readily two partners part at equilibrium) stood at 2.38 nM, the koff came to 0.00698 s⁻¹ and the kon was 2.93e+06 M⁻¹ s⁻¹.
